“And” between values parts separate entries of the source, which are not always exact repeats. Identical values can stand only once.
Biological target: Hfq-FLAG (Yersinia pestis Hfq with C-terminal 3×FLAG tag) (Yersinia pestis)
Assay: […]; 25 mM Tris-HCl (pH 8.0) […]

Q: With “Hfq-FLAG (Yersinia pestis Hfq with C-terminal 3×FLAG tag) (natural protein)” as the substance, how does the stoichiometry N read?
A: The stoichiometry N was 3 and 6.
